Experimental data reported in IntAct's records for PubMed 29892012.

B1: E3 ubiquitin-protein ligase LNX (Homo sapiens), Q8TBB1 (parent)
chain: MNQPESANDPEPLCAVCGQAHSLEENHFYSYPEEVDDDLICHICLQALLDPLDTPCGHTYCTLCLTNFLVEKDFCPMDRKPLVLQHCKKSSILVNKLLNKLLVTCPFREHCTQVLQRCDLEHHFQTSCKGASHYGLTKDRKRRSQDGCPDGCASLTATAPSPEVSAAATISLMTDEPGLDNPAYVSSAEDGQPAISPVDSGRSNRTRARPFERSTIRSRSFKKINRALSVLRRTKSGSAVANHADQGRENSENTTAPEVFPRLYHLIPDGEITSIKINRVDPSESLSIRLVGGSETPLVHIIIQHIYRDGVIARDGRLLPGDIILKVNGMDISNVPHNYAVRLLRQPCQVLWLTVMREQKFRSRNNGQAPDAYRPRDDSFHVILNKSSPEEQLGIKLVRKVDEPGVFIFNVLDGGVAYRHGQLEENDRVLAINGHDLRYGSPESAAHLIQASERRVHLVVSRQVRQRSPDIFQEAGWNSNGSWSPGPGERSNTPKPLHPTITCHEKVVNIQKDPGESLGMTVAGGASHREWDLPIYVISVEPGGVISRDGRIKTGDILLNVDGVELTEVSRSEAVALLKRTSSSIVLKALEVKEYEPQEDCSSPAALDSNHNMAPPSDWSPSWVMWLELPRCLYNCKDIVLRRNTAGSLGFCIVGGYEEYNGNKPFFIKSIVEGTPAYNDGRIRCGDILLAVNGRSTSGMIHACLARLLKELKGRITLTIVSWPGTFL

Variants of: B1
Details: with srsf1_human SRSF1, Q07955
Chain of srsf1_human SRSF1, Q07955 (Q07955 whole entry): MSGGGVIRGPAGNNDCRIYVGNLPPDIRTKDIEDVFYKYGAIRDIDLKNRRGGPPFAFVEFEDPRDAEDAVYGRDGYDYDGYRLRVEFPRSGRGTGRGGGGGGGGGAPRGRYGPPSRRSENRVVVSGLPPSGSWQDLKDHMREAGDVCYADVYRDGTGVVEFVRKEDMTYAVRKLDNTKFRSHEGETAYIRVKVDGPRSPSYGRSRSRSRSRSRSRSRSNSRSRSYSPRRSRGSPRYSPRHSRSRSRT

effect of a mutation on the interaction | Variant
disrupting interaction strength | E295K

Variants of: B1
Details: with pmgt1_human POMGNT1, Q8WZA1
Chain of pmgt1_human POMGNT1, Q8WZA1 (Q8WZA1 whole entry): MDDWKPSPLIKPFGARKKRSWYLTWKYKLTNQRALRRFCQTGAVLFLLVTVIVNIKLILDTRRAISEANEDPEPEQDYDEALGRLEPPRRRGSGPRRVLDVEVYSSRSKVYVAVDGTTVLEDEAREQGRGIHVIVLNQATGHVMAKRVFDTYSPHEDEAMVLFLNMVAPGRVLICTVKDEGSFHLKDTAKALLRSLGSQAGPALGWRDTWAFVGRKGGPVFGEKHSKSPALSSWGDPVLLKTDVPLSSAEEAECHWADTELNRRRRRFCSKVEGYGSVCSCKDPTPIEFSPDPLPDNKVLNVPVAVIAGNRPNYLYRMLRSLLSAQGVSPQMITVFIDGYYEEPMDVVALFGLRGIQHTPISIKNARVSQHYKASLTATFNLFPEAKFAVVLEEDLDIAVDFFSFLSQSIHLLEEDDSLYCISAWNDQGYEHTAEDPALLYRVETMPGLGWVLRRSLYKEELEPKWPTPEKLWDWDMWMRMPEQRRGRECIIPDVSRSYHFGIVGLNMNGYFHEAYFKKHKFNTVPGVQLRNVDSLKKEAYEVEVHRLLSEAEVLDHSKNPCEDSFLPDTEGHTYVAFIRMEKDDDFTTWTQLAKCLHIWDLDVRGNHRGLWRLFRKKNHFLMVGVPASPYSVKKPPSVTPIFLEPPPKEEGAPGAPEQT

effect of a mutation on the interaction | Variant
disrupting interaction strength | E295K

Variants of: B1
Details: with nagk_human NAGK

effect of a mutation on the interaction | Variant
disrupting interaction strength | E295K

Variants of: B1
Details: with cep72_human CEP72, Q9P209
Chain of cep72_human CEP72, Q9P209 (Q9P209 whole entry): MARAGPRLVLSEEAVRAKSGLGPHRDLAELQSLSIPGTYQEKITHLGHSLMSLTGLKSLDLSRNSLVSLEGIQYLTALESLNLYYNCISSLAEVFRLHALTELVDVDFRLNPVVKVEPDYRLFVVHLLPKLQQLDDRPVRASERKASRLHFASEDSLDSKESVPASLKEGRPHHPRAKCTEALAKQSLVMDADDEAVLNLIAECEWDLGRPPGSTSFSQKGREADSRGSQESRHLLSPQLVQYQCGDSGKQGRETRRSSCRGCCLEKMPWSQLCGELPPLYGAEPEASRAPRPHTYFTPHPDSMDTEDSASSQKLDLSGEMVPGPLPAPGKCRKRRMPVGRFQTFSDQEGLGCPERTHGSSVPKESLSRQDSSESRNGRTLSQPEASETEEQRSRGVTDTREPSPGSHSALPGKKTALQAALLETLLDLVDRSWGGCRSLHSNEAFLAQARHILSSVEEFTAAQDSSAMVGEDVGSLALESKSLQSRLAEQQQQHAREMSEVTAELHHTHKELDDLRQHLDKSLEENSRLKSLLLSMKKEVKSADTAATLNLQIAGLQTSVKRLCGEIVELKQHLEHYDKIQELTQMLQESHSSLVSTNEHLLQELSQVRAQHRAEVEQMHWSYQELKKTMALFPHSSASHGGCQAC

effect of a mutation on the interaction | Variant
disrupting interaction strength | E295K

Variants of: B1
Details: with mk09_human MAPK9, P45984

effect of a mutation on the interaction | Variant
with no effect | E295K

Variants of: B1
Details: with grb2_human GRB2, P62993

effect of a mutation on the interaction | Variant
disrupting interaction strength | E295K

Variants of: B1
Details: with ldoc1_human LDOC1, O95751
Chain of ldoc1_human LDOC1, O95751 (O95751 whole entry): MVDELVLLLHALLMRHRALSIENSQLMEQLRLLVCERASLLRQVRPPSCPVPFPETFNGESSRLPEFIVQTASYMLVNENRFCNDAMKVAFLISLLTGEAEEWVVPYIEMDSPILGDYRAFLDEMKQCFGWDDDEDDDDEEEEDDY

effect of a mutation on the interaction | Variant
disrupting interaction strength | E295K

Variants of: B1
Details: with kcd17_human KCTD17, Q8N5Z5
Chain of kcd17_human KCTD17, Q8N5Z5 (Q8N5Z5 whole entry): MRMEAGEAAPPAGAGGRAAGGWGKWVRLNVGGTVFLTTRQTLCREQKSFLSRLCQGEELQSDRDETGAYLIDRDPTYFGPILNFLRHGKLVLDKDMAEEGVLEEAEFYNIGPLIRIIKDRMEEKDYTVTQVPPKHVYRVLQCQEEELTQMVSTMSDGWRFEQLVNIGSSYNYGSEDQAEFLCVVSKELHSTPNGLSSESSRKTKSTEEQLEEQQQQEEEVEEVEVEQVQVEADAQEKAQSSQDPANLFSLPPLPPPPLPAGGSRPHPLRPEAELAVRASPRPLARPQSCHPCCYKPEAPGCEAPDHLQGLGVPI

effect of a mutation on the interaction | Variant
disrupting interaction strength | E295K

Variants of: B1
Details: with rpia_human RPIA

effect of a mutation on the interaction | Variant
disrupting interaction strength | E295K

Variants of: B1
Details: with tera_human VCP

effect of a mutation on the interaction | Variant
disrupting interaction strength | E295K

Variants of: B1
Details: with KRT15, P19012
Chain of KRT15, P19012 (P19012 whole entry): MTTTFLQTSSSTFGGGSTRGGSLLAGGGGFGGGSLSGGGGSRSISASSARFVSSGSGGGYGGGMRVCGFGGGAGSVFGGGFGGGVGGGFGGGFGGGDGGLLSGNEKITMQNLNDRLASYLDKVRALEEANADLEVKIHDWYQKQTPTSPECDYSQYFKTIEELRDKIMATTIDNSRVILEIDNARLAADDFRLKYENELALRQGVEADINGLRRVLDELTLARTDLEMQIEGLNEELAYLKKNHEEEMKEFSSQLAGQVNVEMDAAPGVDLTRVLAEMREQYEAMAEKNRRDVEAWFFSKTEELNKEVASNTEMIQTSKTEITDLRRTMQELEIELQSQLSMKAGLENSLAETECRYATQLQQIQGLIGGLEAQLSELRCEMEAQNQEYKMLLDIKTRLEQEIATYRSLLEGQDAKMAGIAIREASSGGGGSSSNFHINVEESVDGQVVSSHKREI

effect of a mutation on the interaction | Variant
disrupting interaction strength | E295K

Variants of: B1
Details: with rop1a_human ROPN1, Q9HAT0
Chain of rop1a_human ROPN1, Q9HAT0 (Q9HAT0 whole entry): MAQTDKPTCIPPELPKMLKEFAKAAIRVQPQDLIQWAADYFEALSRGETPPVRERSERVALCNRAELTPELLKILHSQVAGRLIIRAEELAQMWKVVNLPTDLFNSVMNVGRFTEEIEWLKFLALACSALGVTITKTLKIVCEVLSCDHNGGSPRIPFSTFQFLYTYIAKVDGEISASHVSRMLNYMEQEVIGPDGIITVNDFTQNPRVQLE

effect of a mutation on the interaction | Variant
disrupting interaction strength | E295K

Variants of: B1
Details: with nt2na_human NOTCH2NLA

effect of a mutation on the interaction | Variant
disrupting interaction strength | E295K

Variants of: B1
Details: with mt21a_human METTL21A

effect of a mutation on the interaction | Variant
disrupting interaction strength | E295K

Variants of: B1
Details: with zbt8a_human ZBTB8A

effect of a mutation on the interaction | Variant
disrupting interaction strength | E295K

Variants of: B1
Details: with dnpep_human DNPEP

effect of a mutation on the interaction | Variant
disrupting interaction strength | E295K

Variants of: B1
Details: with clk2_human CLK2, P49760
Chain of clk2_human CLK2, P49760 (P49760 whole entry, looked up): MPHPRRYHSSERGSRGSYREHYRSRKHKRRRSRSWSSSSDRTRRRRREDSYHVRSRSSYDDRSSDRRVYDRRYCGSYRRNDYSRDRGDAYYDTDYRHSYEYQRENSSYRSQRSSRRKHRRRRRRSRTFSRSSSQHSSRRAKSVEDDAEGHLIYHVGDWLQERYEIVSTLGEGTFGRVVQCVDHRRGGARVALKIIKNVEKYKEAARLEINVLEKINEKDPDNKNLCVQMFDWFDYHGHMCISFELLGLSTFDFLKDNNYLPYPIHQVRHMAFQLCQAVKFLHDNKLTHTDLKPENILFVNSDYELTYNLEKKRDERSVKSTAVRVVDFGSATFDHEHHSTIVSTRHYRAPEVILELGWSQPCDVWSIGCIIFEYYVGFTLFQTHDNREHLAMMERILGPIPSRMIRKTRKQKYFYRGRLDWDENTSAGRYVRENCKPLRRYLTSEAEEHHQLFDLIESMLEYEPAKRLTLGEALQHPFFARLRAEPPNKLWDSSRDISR

effect of a mutation on the interaction | Variant
disrupting interaction strength | E295K

Variants of: B1
Details: with sat1_human SAT1, P21673
Chain of sat1_human SAT1, P21673 (P21673 whole entry): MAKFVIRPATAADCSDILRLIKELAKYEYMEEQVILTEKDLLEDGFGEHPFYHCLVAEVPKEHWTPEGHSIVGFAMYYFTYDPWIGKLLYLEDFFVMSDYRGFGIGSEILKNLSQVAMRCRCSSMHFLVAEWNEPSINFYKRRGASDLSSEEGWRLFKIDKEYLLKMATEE

effect of a mutation on the interaction | Variant
disrupting interaction strength | E295K

Variants of: B1
Details: with neca2_human NECAB2, Q7Z6G3
Chain of neca2_human NECAB2, Q7Z6G3 (Q7Z6G3 whole entry): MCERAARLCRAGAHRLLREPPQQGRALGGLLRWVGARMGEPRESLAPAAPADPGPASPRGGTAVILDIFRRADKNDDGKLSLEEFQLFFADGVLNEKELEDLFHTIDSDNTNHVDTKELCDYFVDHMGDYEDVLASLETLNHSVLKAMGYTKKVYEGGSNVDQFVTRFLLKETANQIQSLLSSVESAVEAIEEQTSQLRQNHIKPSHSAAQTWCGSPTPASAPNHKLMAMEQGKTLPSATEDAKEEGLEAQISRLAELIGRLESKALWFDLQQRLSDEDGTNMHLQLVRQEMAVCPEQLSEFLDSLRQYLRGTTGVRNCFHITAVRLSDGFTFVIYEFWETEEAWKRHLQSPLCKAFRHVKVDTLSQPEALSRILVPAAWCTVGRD

effect of a mutation on the interaction | Variant
disrupting interaction strength | E295K

Variants of: B1
Details: with tri23_human TRIM23, P36406
Chain of tri23_human TRIM23, P36406 (P36406 whole entry): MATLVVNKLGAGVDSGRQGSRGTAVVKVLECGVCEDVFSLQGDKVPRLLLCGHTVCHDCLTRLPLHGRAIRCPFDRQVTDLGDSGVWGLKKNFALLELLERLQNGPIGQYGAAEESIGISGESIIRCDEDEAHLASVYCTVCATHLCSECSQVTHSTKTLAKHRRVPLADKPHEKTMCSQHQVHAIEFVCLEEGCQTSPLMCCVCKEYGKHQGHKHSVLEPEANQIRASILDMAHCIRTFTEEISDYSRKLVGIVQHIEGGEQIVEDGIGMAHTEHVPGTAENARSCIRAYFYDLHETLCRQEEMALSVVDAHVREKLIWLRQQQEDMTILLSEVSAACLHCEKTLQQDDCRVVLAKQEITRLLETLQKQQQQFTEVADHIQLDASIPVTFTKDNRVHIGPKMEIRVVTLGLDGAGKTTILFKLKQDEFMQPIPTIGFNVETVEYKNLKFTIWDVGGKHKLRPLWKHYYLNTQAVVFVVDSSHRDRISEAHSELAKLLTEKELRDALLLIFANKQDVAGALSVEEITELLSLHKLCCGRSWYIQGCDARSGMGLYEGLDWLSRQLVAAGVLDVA

effect of a mutation on the interaction | Variant
disrupting interaction strength | E295K

Variants of: B1
Details: with mr1l1_human MRFAP1L1, Q96HT8
Chain of mr1l1_human MRFAP1L1, Q96HT8 (Q96HT8 whole entry): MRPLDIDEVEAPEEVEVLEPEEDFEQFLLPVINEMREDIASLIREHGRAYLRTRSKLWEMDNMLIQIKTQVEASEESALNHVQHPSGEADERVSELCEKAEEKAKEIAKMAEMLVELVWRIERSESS

effect of a mutation on the interaction | Variant
disrupting interaction strength | E295K

Variants of: B1
Details: with ndk7_human NME7, Q9Y5B8
Chain of ndk7_human NME7, Q9Y5B8 (Q9Y5B8 whole entry): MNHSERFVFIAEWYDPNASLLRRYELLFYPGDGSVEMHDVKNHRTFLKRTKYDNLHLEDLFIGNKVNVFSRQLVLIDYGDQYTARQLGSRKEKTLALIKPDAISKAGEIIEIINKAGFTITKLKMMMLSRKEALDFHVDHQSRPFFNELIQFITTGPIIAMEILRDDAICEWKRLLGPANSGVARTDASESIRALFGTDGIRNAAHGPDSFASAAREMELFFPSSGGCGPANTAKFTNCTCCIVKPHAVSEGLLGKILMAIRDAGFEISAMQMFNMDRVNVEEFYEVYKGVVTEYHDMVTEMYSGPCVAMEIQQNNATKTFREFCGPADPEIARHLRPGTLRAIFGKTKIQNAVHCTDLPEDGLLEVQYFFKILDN

effect of a mutation on the interaction | Variant
disrupting interaction strength | E295K
